Blank lines part the entries; values can stand above or below the binder they belong to. Where no end group is shown, it is not given here.
What was measured:
UBE2D2/UbcH5b = UBE2D2/UbcH5b (UniProt P62837 1-147); experiment: NMR titration
[1] = target: full length 6xHis tagged p53 (human, UniProt P04637 1-393); experiment: pull-down
Sequence of full length 6xHis tagged p53 (P04637 whole entry): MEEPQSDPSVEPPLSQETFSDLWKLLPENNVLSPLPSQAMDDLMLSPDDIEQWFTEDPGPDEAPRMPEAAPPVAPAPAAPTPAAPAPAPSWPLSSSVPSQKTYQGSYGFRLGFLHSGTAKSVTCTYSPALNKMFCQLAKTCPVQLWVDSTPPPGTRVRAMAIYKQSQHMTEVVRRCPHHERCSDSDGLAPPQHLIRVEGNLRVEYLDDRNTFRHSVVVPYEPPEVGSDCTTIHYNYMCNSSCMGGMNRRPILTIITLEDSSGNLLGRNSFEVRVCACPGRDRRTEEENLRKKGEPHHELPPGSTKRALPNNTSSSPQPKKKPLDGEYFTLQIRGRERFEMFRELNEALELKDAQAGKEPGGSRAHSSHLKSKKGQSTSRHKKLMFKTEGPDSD

- Kd (UBE2D2/UbcH5b): ~200 µM
B1: Pirh2 RING domain (GST removed) (domain or fragment)
chain: ENVSRQNCPICLEDIHTSRVVAHVLPCGHLLHRTCYEEMLKEGYRCPLCMHS
modifications: cysteine pairing not given here; also: 2 Zn ions bound

- binding result [1]: binds
B2: GST-Pirh2 NTD (domain or fragment, human, UniProt Q96PM5 1-137, looked up)
chain: MAATAREDGASGQERGQRGCEHYDRGCLLKAPCCDKLYTCRLCHDNNEDHQLDRFKVKEVQCINCEKIQHAQQTCEECSTLFGEYYCDICHLFDKDKKQYHCENCGICRIGPKEDFFHCLKCNLCLAMNLQGRHKCI

From PMC4075976 (Nature structural & molecular biology, 2008)
